According to US20230137139A1, “BIOSYNTHESIS OF CANNABINOIDS AND C[…]” (priority 2020, published 2023):

B1: t861583 (protein)
chain: MGNTTSIAGRDCLISALGGNSALAVFPNELLWTADVHEYNLNLPVTPAAITYPETAAQIAGVVKCASDYDYKVQARSGGHSFGNYGLGGADGAVVVDMKHFTQFSMDDETYEAVIGPGTTLNDVDIELYNNGKRAMAHGVCPTIKTGGHFTIGGLGPTARQWGLALDHVEEVEVVLANSSIVRASNTQNQDVFFAVKGAAANFGIVTEFKVRTEPAPGLAVQYSYTFNLGSTAEKAQFVKDWQSFISAKNLTRQFYNNMVIFDGDIILEGLFFGSKEQYDALGLEDHFAPKNPGNILVLTDWLGMVGHALEDTILKLVGNTPTWFYAKSLGFRQDTLIPSAGIDEFFEYIANHTAGTPAWFVTLSLEGGAINDVAEDATAYAHRDVLFWVQLFMVNPLGPISDTTYEFTDGLYDVLARAVPESVGHAYLGCPDPRMEDAQQKYWRTNLPRLQELKEELDPKNTFHHPQGVMPA
B2: t861567 (protein)
chain: MDSNTWEATFGSGFLLGELDKHLHANGNRAMAHGTCPGVGMGGHATIGGIGPSSRLWGTTLDHVLQVEVVTADGKIQRASKTQNPDLFWALQGAGASFGIITEFVVRTEPEPGSVVEYTYSVSLGKQSDMAPLYKQWQALVGDPSLDRRFTSLFIAEPLGVLITGTFYGTMYEWHASGIPDKLPRGPISVTVMDSLGSLAHIAEKTGLYLTNVPTSFASRSLALRQQDLLSEQSIDDLFEYMGSANADTPLWFVIFDNEGGAIADVPDNSTAYPHRDKVIVYQSYSVGLLGVTDKMIKFLDGVQDIVQRGAPNAHTTYAGYINPQLDRKAAQQFYWGDKLPRLQQIKKQYDPNNVFCNPQSIYPAEDMSDG
B3: t861563 (protein)
chain: MARVPALFLGLSSVCLLVFFCSLINPTTPLHQHGKQTSIAGRDCLVSALGGNTGLVAFQDQLLYQTTAVHEYNLNIPVTPAAITYPETSEQIAAVVKCASEYDYKVQARSGGHSFGNYGLGGADGAVVVDMKHFTQFSMDEQTYEAVIGPGTTLGDVDTELYNNGKRAMAHGICPTISTGGHFTMGGLGPTARQWGLALDHVEEVEVVLANSSIVRASNTQNQEVFFAVKGAAASFGIVTEFKVRTQPAPGLAVQYSYTFNLGSSAEKAQFVKDWQSFISAKNLTRQFYTNMVIFDGNIILEGLFFGSKEQYEALGLEDRFVPKNPGNILVLTDWLGMVGHALEDTILRLVGNTPTWFYAKSLGFTPDTLIPSSGIDEFFDYIENNKAGTLTWFVTLSLEGGAINDVPKDATAYGHRDVLFWVQIFMASPTGPVSSTTYDFADGLYNVLTKAVPESEGHAYLGCPDPKMADAQQKYWRQNLPRLEELKATLDPKDTFHNPQGILPA
B4: t861588 (protein)
chain: MGNTTSIAAGRDCLLSAVGGNHAHVAFQDQLLYQVTAVEPYNLNIPVTPAAVTYPQSADEIAAVVKCASEYGYKVQARSGGHSFGNYGLGGEDGAIVVEMKHFNQFSMDESTYTATIGPGITLGDLDTALYNAGHRAMAHGICPTIRTGGHLTMGGLGPTARQWGLALDHVEEVEVVLANSSIVRASNTQNQDILFAIKGAAASFGIVTEFKVRTEAAPGVAVQYSFTFNLGTPAEKAKLVKDWQAFIAQEDLTWKFYSNMNIFDGQIILEGIYFGSKEEYDALGLEKRFPSSEAGTVLVLTDWLGMVGHGLEDVILRLVGNTPTWFYAKSLGFTPRALIPDSAIDEFLNYIHENTPGTVSWFVTLSLEGGAINKVPGDATAYGHRDVLFWVQIFMINPLGPVSQTTYGFADGLYDVLAKAVPNSAGHAYLGCPDPRMPNAQQAYWRSNLPRLEELKGELDPKDIFHNPQGVMVVS
modifications: N- and C-terminal signal peptides
B5: t861551 (protein)
chain: MGNTTSIAGRDCLISALGGNSALAVFPNQLLWTADVHEYNLNLPVTPAAITYPETAEQIAGIVKCASDYDYKVQARSGGHSFGNYGLGGTDGAVVVDMKHFNQFSMDDQTYEAVIGPGTTLNDVDIELYNNGKRAMAHGVCPTIKTGGHFTIGGLGPTARQWGLALDHVEEVEVVLANSSIVRASNTQNQDVFFAVKGAAADFGIVTEFKVRTEPAPGLAVQYSYTFNLGSTAEKAQFVKDWQSFISAKNLTRQFYNNMVIFDGDIILEGLFFGSKEQYDALGLEDHFAPKNPGNILVLTDWLGMVGHALEDTILKLVGNTPTWFYAKSLGFRQDTLIPSAGIDQFFEYIANHTAGTPAWFVTLSLEGGAINDVAEDATAYAHRDVLFWVQLFMVNPLGPISETTYEFTDGLYDVLARAVPESVGHAYLGCPDPRMENAPQKYWRTNLPRLQELKEELDPKNTFHHPQGVIPA
B6: t861577 (protein)
chain: MGNTTSIAGRDCLISALGGNSALAAFPNQLLWTADVHEYNLNLPVTPAAITYPETAEQIAGIVKCASDYDYKVQARSGGHSFGNYGLGGTDGAVVVDMKHFNQFSMDDQTYEAVIGPGTTLNDVDIELYNNGKRAMAHGVCPTIKTGGHFTIGGLGPTARQWGLALDHVEEVEVVLANSSIVRASNTQNQDVLFAVKGAAADFGIVTEFKVRTEPAPGLAVQYSYTFNLGSTAEKAQFVKDWQSFISAKNLTRQFYNNMVIFDGDIILEGLFFGSKEQYDALGLEDHFAPKNPGNILVLTDWLGMVGHALEDTILKLVGNTPTWFYAKSLGFRQDTLIPSAGIDEFFEYIDNHTAGTPAWFVTLSLEGGAINDVAEDATAYAHRDVLFWVQLFMVNPLGPISETTYEFTDGLYDVLARAVPESVGHAYLGCPDPRMENAPQKYWRTNLPRLQELKEELDPKNTFHHPQGVIPA
B7: t861592 (protein)
chain: MGNTTSIAGRDCLISALGGNSALAAFPNQLLWTADVHEYNLNLPVTPAAITYPETAEQIAGIVKCASDYDYKVQARSGGHSFGNYGLGGTDGAVVVDMKHFNQFSMDDQTYEAVIGPGTTLNDVDIELYNNGKRAMAHGVCPTIKTGGHFTIGGLGPTARQWGLALDHVEEVEVVLANSSIVRASNTQNQDVLFAVKGAAADFGIVTEFKVRTEPAPGLAVQYSYTFNLGSTAEKAQFVKDWQSFISAKNLTRQFYNNMVIFDGDIILEGLFFGSKEQYDALGLEDHFAPKNPGNILVLTDWLGMVGHALEDTILKLVGNTPTWFYAKSLGFRQDTLIPSAGIDEFFEYIDNHTAGTPAWFVTLSLEGGAINDVAEDATAYAHRDVLFWVQLFMVNPLGPISETTYEFTDGLYDVLARAVPESVGHAYLGCPDPRMENAPQKYWRTNLPRLQELKEELDPKNTFHHPQGVIPA
B8: t861568 (protein)
chain: MGNSASVAGRACFVAAVGHDPNLVTFRGDLLYEFRIQPSYNLAIPVHPTVVTYPKTTAQVAEIVSCAAAQNYKMQAYSGGHSYGNYGLGGEDGHVVVDLKNFQDFTMDPDTHVATIGAGTSLGDLQDRLWHAGGRAMAHGSCPQVGVGGHFTIGGLGMMSRQWGMSLDHVVEAQVVLANSSVVTASDTQNQDIFWAIKGAAASFGIVTKFKVRTHGVPKAAIQYQYTFSQGDVLDKVKLFMAWQNIVAKPNLTRNFSTELTIFQDGIMIMGSFFGTRDEFHKFELENDLPLQGLGNVAYITNWLSLVAHTAEDYLLRLTGNVLTSFYAKSLSFTADELFNEQGLVTLFTYLDAAPKGTPTWWVIFDLEGGATNDVPVNATSYAHRDAIMWMQSYAVAGFEPPGFIIKRFLNRLHGVVIGNRAPGAVRSYPGYVDPYLRNAQETYWGPNLARLQDIKTAVDPDDVFHNPQSVKVNSLSPPDPGSHDV

tested on: CBCA production; assay: In vivo TS activity assay, Example 4 CBCAS enzymes with and without signal peptides, no pH adjustment; assay type: cell-based; conditions: strains with (Y) or without (N) N-terminal and C-terminal signal peptides; no pH adjustment at Day 4; S. cerevisiae
Procedure: An assay to detect TS activity was conducted as follows: each thawed glycerol stock of candidate CBCAS transformants was stamped into a well of YEP+4% dextrose media. Samples were incubated at 30° C. in a shaking incubator for 2 days. A portion of each of the resulting cultures was stamped into a well of YEP+4% galactose+1 mM olivetolic acid (FIG. 1 Structure 6a). Samples were incubated at 20° C. and shaken in a shaking incubator for 4 days. Every 24 hours during those 4 days, 2% galactose and 1 mM olivetolic acid were spiked into the cultures. Sodium citrate buffer adjusted to pH 5.5 was added to each well at a final concentration of 100 mM. Samples were incubated at 20° C. and shaken in a shaking incubator for 2 days. A portion of each of the resulting production cultures was stamped into a well of phosphate buffered saline (PBS). Optical measurements were taken on a plate reader, with absorbance measured at 600 nm and fluorescence at 528 nm with 485 nm excitation. Samples were incubated at 30° C. in a shaking incubator for 2 days. 100% methanol was stamped into the production cultures in half-height deepwell plates. Plates were heat sealed and frozen. Samples were then thawed for 30 min and spun down at 4° C. A portion of the supernatant was stamped into half-area 96 well plates. CBCA, THCA, and CBDA production in the samples was quantified via liquid chromatography-mass spectrometry (LC-MS).
A library of 20 CBCAS enzymes selected from Example 1 and 3 was synthesized, including versions of the CBCAS enzymes with and without the N-terminal MFalpha2 signal peptide (SEQ ID NO: 16) and C-terminal HDEL signal peptide (SEQ ID NO: 17). Each candidate enzyme expression construct was transformed into an S. cerevisiae CEN.PK strain that also expressed a prenyltransferase enzyme capable of catalyzing reaction R^4 in FIG. 2. Strain t861555 expressing the A. niger CBCAS identified in Example 1, carrying both the Mfalpha2 and HDEL signal peptides was included in the library screen as a positive control for enzyme activity. Strain t861565 expressed the same A. niger CBCAS without the Mfalpha2 and HDEL signal peptides.
The strains were screened using the assay described in Example 1 with the following exception: at Day 4 samples were not subjected to a pH adjustment and a further 2 days of incubation at 20° C.

**Q.** How did the “Average CBCA” value turn out when B1 was run?
**A.** 59260.52 µg/L

**Q.** Which “Average CBCA” value does the source give for B2 here?
**A.** 0.00 µg/L

**Q.** Which “Average CBCA” value does the source give for B3 here?
**A.** 4821.60 µg/L

**Q.** With B4 as the molecule, how does the “Average CBCA” value read?
**A.** 42686.95 µg/L

**Q.** Which “Average CBCA” value does the source give for B5 here?
**A.** 17501.94 µg/L

**Q.** Which “Average CBCA” value does the source give for B6 here?
**A.** 36869.19 µg/L

**Q.** For B7, which “Average CBCA” value is on record?
**A.** 74584.36 µg/L

**Q.** With B8 as the molecule, how does the “Average CBCA” value read?
**A.** 0.00 µg/L
